Measurements as given in patent US20080004436A1 (YEDA RESEARCH AND DEVELOPMENT CO LTD AT THE WEIZMANN …, published 2008).

B1: immunity protein 7 (Im7), wild type (other)
chain: MELKNSISDYTEAEFVQLLKEIEKENVAATDDVLDVLLEHFVKITEHPDGTDLIYYPSDNRDDSPEGIVKEIKEWRAANGKPGFKQG
notes: also called wild-type Im7
B2: in vitro evolved Im9 variant #8 (Round 8, high stringency) (designed binder)
chain: MELKHRISDYTEAEFLQLVTTICDANASSEEELDKLITHFEEMTEHPSGSDLIYWPKEGDDDSPSGIVNTVKQWRAANGKSGFKQG
notes: also called Evolved Im variant#8; evolved variant 8

Key:
[1] = biological target: T1, colicin E7 DNase (ColE7) (E. coli, UniProt Q47112 444-576); test: cell-based or functional assay
T1 sequence: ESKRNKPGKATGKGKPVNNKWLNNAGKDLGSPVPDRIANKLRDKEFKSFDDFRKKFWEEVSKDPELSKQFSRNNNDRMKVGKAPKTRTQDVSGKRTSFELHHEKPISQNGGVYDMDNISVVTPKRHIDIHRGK

[2] = biological target: T1, colicin E7 DNase (ColE7); test: not stated (running text of Example 4)
[3] = biological target: T2, colicin E9 DNase (ColE9) (E. coli, UniProt P09883 449-582); test: not stated (running text of Example 4)
T2 sequence: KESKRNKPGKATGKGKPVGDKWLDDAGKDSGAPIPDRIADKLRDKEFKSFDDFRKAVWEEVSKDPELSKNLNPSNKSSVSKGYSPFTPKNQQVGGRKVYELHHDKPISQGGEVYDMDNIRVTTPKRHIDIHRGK

[4] = biological target: T1, colicin E7 DNase (ColE7); test: affinity measurements (Kleanthous laboratory; method not stated)

Binder	ColE7 concentration at which full protection was observed, in vivo protection assay, 0.05 mM IPTG [1] [µM]	ColE7 concentration at which full protection was observed, in vivo protection assay, 1 mM IPTG [1] [µM]	ColE7 concentration at which full protection was observed, in vivo protection assay, w/o IPTG [1] [µM]	Kd [2] [pM]	Kd [3] [pM]	Kd [4] [pM]	koff [4] [s⁻¹]	kon [4] [M⁻¹ s⁻¹]
B1	> 100	> 100	100	0.00079	56000	≤ 0.01	≤ 1e-05	7.6e+08
B2						3.85	0.0032	8.3e+08
